Here are results for one sequence from the Immune Epitope Database (IEDB).

The target of one assay is HLA-A*02:01. Nature of the assay: IEDB peptide-MHC binding, purified MHC/direct/fluorescence; filed as Kd, often an IC50 or EC50 that approximates it; ≥ and ≤ were set here for values at or beyond the usual limits of such assays. To be noted: source organism: Salmonella enterica.
The next assay concerns the target HLA-B*08:02. The description is as above. To be noted: source organism: Salmonella enterica subsp. enterica serovar Typhimurium str. LT2.
The target in the next assay is HLA-A*02:03. The assay is described as follows: IEDB peptide-MHC binding, purified MHC/competitive/fluorescence; filed as Kd, often an IC50 or EC50 that approximates it; ≥ and ≤ were set here for values at or beyond the usual limits of such assays. The following applies: source organism: Salmonella enterica subsp. enterica serovar Typhimurium str. LT2.
Another assay has as its target HLA-A*02:06. The assay is described as above. To be noted: source organism: Salmonella enterica subsp. enterica serovar Typhimurium str. LT2.
The target in another assay is HLA-A*68:23. The description is as above. The following applies: source organism: Salmonella enterica subsp. enterica serovar Typhimurium str. LT2.
In the next assay the target is HLA-B*15:01. The description is as above. The following applies: source organism: Salmonella enterica subsp. enterica serovar Typhimurium str. LT2.
Another assay addresses HLA-B*15:17. The assay is described as above. The following applies: source organism: Salmonella enterica subsp. enterica serovar Typhimurium str. LT2.
The next assay addresses HLA-B*15:42. The assay is described as above. To be noted: source organism: Salmonella enterica subsp. enterica serovar Typhimurium str. LT2.
Another assay concerns the target HLA-B*45:06. Described as above. To be noted: source organism: Salmonella enterica subsp. enterica serovar Typhimurium str. LT2.
The next assay addresses HLA-B*83:01. Described as above. To be noted: source organism: Salmonella enterica subsp. enterica serovar Typhimurium str. LT2.

pKd: −log10 of the molar value.

For FPASHMATY, the negative-log Kd (pKd) is at most 4.70 with HLA-A*02:01; at most 4.70 in the assay with HLA-B*08:02; at most 4.70 with HLA-A*02:03; 5.89 in the assay with HLA-A*02:06; 8.22 with HLA-A*68:23; 6.48 in the assay with HLA-B*15:01. Further, the pKd in the assay with HLA-B*15:17 is at most 4.70; in the assay with HLA-B*15:42, at most 5.30; with HLA-B*45:06 it was at most 5.30; in the assay with HLA-B*83:01 it was 6.66.

By pKd is commonly meant −log10 of the Kd, conventionally taken in molar units. A high value points to a low Kd.
